Test results taken from article PMC2994726 (PLoS ONE, 2010).

How the values were obtained:
Assay in all cases: radioligand binding; whole-cell heterologous competition on transfected COS-7 cells: 1 nM 3H-Ang II tracer and increasing unlabeled SII Ang II, 3 h at 4°C; pKi calculated from Ang II KD values of experiments run in parallel
Details in all cases: one partner purified
[1] = molecular target: T1, FLAG-tagged rat AT1a receptor N298A, full length (rat, UniProt P25095 1-359, N298A)
T1 construct: Angiotensin II type 1a receptor (AT1aR), rat, full length; also called N298A (7.49); source: COS-7, transiently transfected, on whole cells; not shown: FLAG, N-terminal, kept
T1 sequence (looked up): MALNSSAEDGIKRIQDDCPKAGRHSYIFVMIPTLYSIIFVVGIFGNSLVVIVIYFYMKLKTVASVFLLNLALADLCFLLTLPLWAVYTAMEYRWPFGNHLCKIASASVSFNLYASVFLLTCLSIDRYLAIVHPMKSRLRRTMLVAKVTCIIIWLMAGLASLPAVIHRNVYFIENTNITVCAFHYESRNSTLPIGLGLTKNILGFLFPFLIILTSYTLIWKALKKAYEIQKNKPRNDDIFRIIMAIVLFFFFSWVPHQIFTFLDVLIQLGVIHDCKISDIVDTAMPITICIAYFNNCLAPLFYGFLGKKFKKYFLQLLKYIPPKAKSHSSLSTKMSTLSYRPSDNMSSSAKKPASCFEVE

[2] = molecular target: T2, FLAG-tagged rat AT1a receptor D74N truncated after serine 331 (D74N 331Δ) (rat, UniProt P25095 1-331, D74N)
T2 construct: source: COS-7, transiently transfected, on whole cells; not shown: FLAG, N-terminal, kept
T2 sequence (looked up): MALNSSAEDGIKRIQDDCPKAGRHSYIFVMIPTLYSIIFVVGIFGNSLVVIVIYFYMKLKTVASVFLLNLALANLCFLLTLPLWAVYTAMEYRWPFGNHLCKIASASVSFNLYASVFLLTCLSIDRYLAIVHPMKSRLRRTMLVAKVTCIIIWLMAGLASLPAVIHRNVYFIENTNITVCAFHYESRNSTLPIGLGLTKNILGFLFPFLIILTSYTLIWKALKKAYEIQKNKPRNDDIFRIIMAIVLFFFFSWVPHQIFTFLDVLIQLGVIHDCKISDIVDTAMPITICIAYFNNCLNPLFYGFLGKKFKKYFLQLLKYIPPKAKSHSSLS

[3] = molecular target: T3, FLAG-tagged rat AT1a receptor N298A truncated after serine 331 (N298A 331Δ) (rat, UniProt P25095 1-331, N298A)
T3 construct: source: COS-7, transiently transfected, on whole cells; not shown: FLAG, N-terminal, kept
T3 sequence (looked up): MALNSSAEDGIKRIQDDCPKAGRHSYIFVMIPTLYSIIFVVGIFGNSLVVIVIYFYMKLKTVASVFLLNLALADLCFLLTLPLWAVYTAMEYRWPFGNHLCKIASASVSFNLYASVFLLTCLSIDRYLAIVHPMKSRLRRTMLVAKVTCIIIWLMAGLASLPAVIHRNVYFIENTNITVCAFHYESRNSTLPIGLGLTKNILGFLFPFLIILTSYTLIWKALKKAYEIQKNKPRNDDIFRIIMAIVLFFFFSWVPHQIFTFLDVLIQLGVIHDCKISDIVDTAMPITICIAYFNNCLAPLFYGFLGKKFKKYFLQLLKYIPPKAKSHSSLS

[4] = molecular target: T4, FLAG-tagged rat AT1a receptor D74N, full length (rat, UniProt P25095 1-359, D74N)
T4 construct: Angiotensin II type 1a receptor (AT1aR), rat, full length; also called D74N (2.50); source: COS-7, transiently transfected, on whole cells; not shown: FLAG, N-terminal, kept
T4 sequence (looked up): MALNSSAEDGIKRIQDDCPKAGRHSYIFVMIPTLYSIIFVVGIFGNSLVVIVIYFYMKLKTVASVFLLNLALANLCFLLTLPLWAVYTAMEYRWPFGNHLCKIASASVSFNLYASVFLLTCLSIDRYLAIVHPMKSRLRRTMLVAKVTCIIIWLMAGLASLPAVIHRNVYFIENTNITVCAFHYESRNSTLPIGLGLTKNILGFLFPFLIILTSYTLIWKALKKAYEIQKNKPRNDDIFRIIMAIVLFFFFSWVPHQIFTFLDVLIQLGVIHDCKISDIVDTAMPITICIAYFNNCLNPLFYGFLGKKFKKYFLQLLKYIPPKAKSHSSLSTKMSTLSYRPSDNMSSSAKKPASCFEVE

B1: Sar1-Ile4-Ile8 (SII) Ang II (peptide)
chain: GRVIIHPI
modifications: sarcosine at position 1 (Sar1)
Question: Which pKi [1] does the source give for B1 here?
Answer: 6.2

Question: And the pKi [2]?
Answer: 6.8

Question: And the pKi [3]?
Answer: 6.2

Question: What about the pKi [4] of the same binder?
Answer: 6.6
